The text below walks through data of US20150351390A1, “COMPOSITIONS AND METHODS FOR AUXIN-ANALOG CONJUGATION” (PIONEER HI-BRED INTERNATIONAL, INC., priority 2012, published 2015).

Sequences and labels used below:
B1: VvGH3-2: GH3 protein, accession XP_002283886 (protein, listed as Vitis vinifera)
chain: MAVDSGLSSPLGPPACEKDAKALQFIEEMTRNPDQVQEKILAEILSQNGETEYLQRFKLAGATDRDTFKSKVPVVTYEDLQPDIQRIANGDRSPILSSHPISEFLTSSGTSAGERKLMPTIHEEWDRRQKLYSLLMPVMNLYVPGLDKGKGLYFLFVKSETKTPSGLVARPVLTGYYRSEHFKKRPYDPYNVYTSPDEAILCVDSFQSMYAQMLCGLLMHKEVLRVGAVFASGLLRAIRFLQVHWQQLAHDISTGILNPKITDPSVREGLAGILKPSQELADFIIQECSGGNWERIITRIWPNTKYLDVIVTGAMAQYIPTLDYFSGGIPLACTMYASSECYFGLNLKPMSKPSEVSYTIMPNMGYFEFLPHDPSAPPLSRDSPPRLVDLADVEVGKEYELVITTYAGLCRYRVGDILQVTGFHNSAPQFQFIRRKNVLLSIDSDKTDEAELQKAVENASLLLREFNTSVVEYTSFADTKTIPGHYVIYWELLVKDPSNSPTDTVLKQCCLAMEESLNTVYRQGRVADNSIGPLEIRVVKSGTFEELMDYAISRGASINQYKVPRCVNFTPIMELLDSRVLSTYFSPAAPHWTPERRRTD
B2: VvGH3-3: GH3 protein, accession XP_002283229 (protein, listed as Vitis vinifera)
chain: MPEAPKKSFKATGHDYCLAEKNKKALQFIEDVTTNADQVQKRVLAEILTRNAHVEYLHRHGLGGHTDRDTFKKLMPVITYEDLQPDITRIANGDTSLILCSNPISEFLTSSGTSGGERKLMPTIEEELERRSLLYSLLMPVMSQSVQGLEKGKGMYFLFIKSEAKTPGGLVARPVLTSYYKSSHFRERPYDPYTNYTSPNETILCPDSYQSMYSQMLCGLVQNKEVLRVGAVFASGFIRAIRFLEKHWTLLCRDIRTGTIDQQITDPSVREAVMRVLKPDPKLADFVEGECRKESWQGIITRLWPNTKYVDVIVTGTMSQYIPTLDYYSNDLPLVCTMYASSECYFGVNLNPLCKPSEVSYTLIPTMAYFEFLPVHRNNGTNSISVPKSLNDKEQQDLVDLVDVKLGQEYELVVTTYAGLYRYRVGDVLRVAGFKNKAPQFNFVCRKNVVLSIDSDKTDEVELQAAVKNAVNHLMPFDATLTEYTSYADTTTIPGHYVLYWELSLRGSTPIPPSVFEDCCLTVEESLNSVYRQGRVSDKSIGPLEMKIVESGTFDKLMDYAISLGASINQYKTPRCVKFAPIIELLNSRVVSNYFSPKCPKWIPGHKQWCNKN
B3: VvGH3-5: GH3 protein, accession XP_002276241 (protein, listed as Vitis vinifera)
chain: MPEAPKNRGNGAGLGVEGGILDDKNIRALEFIEDVTMNAKEVQMQVLSEIITRNSNVEYLQRHGLNGRVDADTFKKIVPVVTYEDMLPDIERIANGDMSPILCSKPISEFLTSSGTSGGERKLMPTIEEELGRRSLLYSLLMPVMNQSVPGLDEGKGMYFLFVKSEAKTPGGLMARPVLTSYYKSSYFRDRPYDPYTNYTSPNETILCPDSYQSMYSQLLCGLCQNKEVLRVGAVFASGFIRAIRFLEKHWVLLCKDIRAGTLDSQINDPSVREAVKRILKPNPELADFIEAECRRESWEGIITRLWPNTKYIDVIVTGTMSQYIPTLDYYSNGLPLVCTMYASSECYFGLNLNPLCKPSEVSYTLIPTMAYFEFLPVNRKNGFTNVSESAPLNEKEHQELVDLVDVKLGQEYELVVTTYAGLYRYRVGDILCVAGFKNKAPQFKFICRKNVALSIDSDKTDEFELQNAVKNAADHLLQFDASVTEYTSYADTSTIPGHYVLYWEIGLSGATPIPPSVFEDCCLIMEESLNSVYRQGRASDKSIGPLEIRIVEGGTFDKLMDYALSQGASINQYKTPRCVKYAPIIELLNSRVVSNYFSPKCPKWVAGHKQWCT
B4: VvGH3-1: GH3 protein, accession XP_002271252 (protein, listed as Vitis vinifera)
chain: MAVDPILSSPLGPAASEKDAKALQFIEEMTRNADSVQERVLAEILSRNGETEYLKRFKLEGSTVRETFKSKIPVIKYEDLQPEIQRIANGDRSAILSAHPISEFLTSSGTSAGERKLMPTIQEELDRRQMLYSLLMPVMNLYVPGLDKGKGLYFLFVKSETRTPGGLLARPVLTSYYKSEHFKTRPYDPYNVYTSPNEAILCADSFQSMYTQMLCGIYERKQVLRLGAVFASGLLRAIRFLQLNWHQLTHDIRTGTLSPKITDPSVRNCVAGVLKPDPELADLVAGECSKDNWEGIITRIWPNTKYLDVIVTGAMAQYIPTLDYYSGGLPLACTMYASSECYFGLNLNPMSKPSEVSYTIMPNMAYFEFLPHEHSSIPLSRDSPPRLVDLAHVEVGKEYELVITTYAGLYRYRVGDILRVTGFHNSAPQFHFVRRKNVLLSIDSDKTDEAELQKAVDNASKLLREVNTSVVEYTSFADTKTIPGHYVIYWELLVKDSANSPSDELLGQCCLAMEESLNSVYRQGRVADNSIGPLEIRVVKSGTFEELMDYAISRGASINQYKVPRCVNFTPIMELLDSRVVSSHFSPALPHWTPARRR
B5: AIGH3-17: GH3 protein, accession XP_002890761 (protein, listed as Arabidopsis lyrata)
chain: MIPSYDPNDTEAGLKLLDDLTTNAETIQQQVLHQILSQNSGTQYLRAFLDGESDKNQQSFKNKVPVVNYDDIKPFIQRIADGESYDIVSAQPITELLTSSGTSAGKPKLMPSTAEELDRKTFFYSMLVPIMNKYVNGLDEGKGMYLLFIKPEIKTPSGLMARPVLTSYYKSQHFRNRPFNKYNVYTSPDQTILCQDSKQSMYCQLLCGLVQRSHVLRVGAVFASAFLRAVKFLEDHYKELCADIRTGTVTSWITNSSCRDSVLSILNGPNQELADEIESECAEKSWEGILRRIWPKAKYVEVIVTGSMAQYIPTLEFYSGGLPLVSTMYASSECYFGINLNPLCDPADVSYTLLPNMAYFEFLPVDDKSHEEIHFASHSNTDDDDDALKEDLIVDLVNVKVGQYYEIVITTFTGLYRYRVGDILKVTGFHNKAPQFRFVQRRNVVLSIDTDKTSEEDLLNAVTQAKLNHLQHPSSLLLMEYTSYADTSSIPGHYVLFWELKPRHSNDPPKLDDKTMDDCCSEVEDCLDYVYRRCRNRDKSIGPLEIRVVSLGTFDSLMDFCVSQGSSLNQYKTPRCVKSGGALEILDSRVIGRFFSKRVPQWEPLGLDS
B6: ThBAJ34606: GH3 protein, accession BAJ34606 (protein, listed as Thellungiella halophila)
chain: MPEAPKNESLEIFDLTLDEKNKRKLQLIEELTSNADQVQRRVLEEILTRNADVEYLRRHDLDGRTDRETFKNVMPVITYEDIQPEINRIANGDKSHILSIKPISEFLTSSGTSGGERKLMPTIEEELDRRSLLYSLLMPVMSQFVPGLDKGKGMYFLFIKSESKTPGGLPARPVLTSYYKSSHFKERPFDPYTNYTSPNETILCPDSYQSMYSQMLCGLCQHQEVLRVGAVFASGFIRAIKFLEKHWTELVCDIRTGVLSSLITDPSVREAVAKILKPNPKLADFVESECKKKSWQGIITRLWPNTKYVDVIVTGTMSQYIPTLDYYSNGLPLVCTMYASSECYFGVNLKPLCKPSEVSYTLIPTMAYFEFLPVHRNTGVTNSINLPKALTEKEQQELVDLVDVKLGQEYELVVTTYAGLCRYRVGDLLRVTGFKNKAPQFSFICRKNVVLSIDSDKTDEVELQNAVKNAVTHLVPFDASLSEYTSYADTSSIPGHYVLFWELCLDGNTPIPPSVFEDCCLAVEESLNTVYRQGRVSDKSIGPLEIKIVEPNTFDKLMDYAISLGASINQYKTPRCVKFAPIIELLNSRVVDSYFSPKCPKWVPGHRQWGSN

One data set is described as follows: LC-MS assay of GH3 conjugation of IAA with Asp or Glu. The class given is biochemical. The conditions noted are these: conjugation of IAA with Asp by recombinant GH3 protein; IAA-Asp product by LC-MS. Put shortly:
(§1)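 Kinetic parameters come from Michaelis-Menten fits of initial velocities. Velocities reflect LC-MS quantification, against standards, of Asp or Glu conjugates formed by purified GH3 (44 to 164 μg/mL) with 5 mM ATP and MgCl2 at pH 8.0, 30° C.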
Consider B1, for which the “kcat (hrs−1) IAA-Asp” value turned out to be 1011.181 h⁻¹.

As to B2, the “kcat (hrs−1) IAA-Asp” value was found to be 1006.325 h⁻¹.

B3: the “kcat (hrs−1) IAA-Asp” value is 759.486 h⁻¹.

Consider B4, for which the “kcat (hrs−1) IAA-Asp” value amounted to 964.027 h⁻¹.

With B5, the “kcat (hrs−1) IAA-Asp” value stood at 33.508 h⁻¹.

As to B6, the “kcat (hrs−1) IAA-Asp” value stood at 610.082 h⁻¹.

Still in this data set, the particulars now being: conjugation of IAA with Glu by recombinant GH3 protein; IAA-Glu product by LC-MS.
Take B1: the “kcat (hrs−1) IAA-Glu” value was 45.833 h⁻¹.

Regarding B2, the “kcat (hrs−1) IAA-Glu” value stood at 79.770 h⁻¹.

As for B3, the “kcat (hrs−1) IAA-Glu” value was 47.289 h⁻¹.

As for B4, the “kcat (hrs−1) IAA-Glu” value was 45.433 h⁻¹.

With B5, the “kcat (hrs−1) IAA-Glu” value was found to be 317.690 h⁻¹.

For the molecule B6, the “kcat (hrs−1) IAA-Glu” value worked out at 67.109 h⁻¹.

The next data set can be described thus: LC-MS assay of GH3 conjugation of 2,4-D with Asp or Glu. Type of data set: biochemical. Conditions: conjugation of 2,4-D with Asp by recombinant GH3 protein; 2,4-D-Asp product by LC-MS; 5 mM 2,4-D substrate. The method in brief:
as §1
Regarding B1, the “kcat (hrs−1) 2,4-D-Asp” value was found to be 5.691 h⁻¹.

Regarding B2, the “kcat (hrs−1) 2,4-D-Asp” value is 5.615 h⁻¹.

Take B3: the “kcat (hrs−1) 2,4-D-Asp” value turned out to be 2.603 h⁻¹.

Consider B4, for which the “kcat (hrs−1) 2,4-D-Asp” value is 2.529 h⁻¹.

Regarding B5, the “kcat (hrs−1) 2,4-D-Asp” value was determined as 0.212 h⁻¹.

Turning to B6, the “kcat (hrs−1) 2,4-D-Asp” value stood at 4.232 h⁻¹.

Still in this data set, the particulars now being: conjugation of 2,4-D with Glu by recombinant GH3 protein; 2,4-D-Glu product by LC-MS; 5 mM 2,4-D substrate.
B1: the “kcat (hrs−1) 2,4-D-Glu” value was 1.113 h⁻¹.

Consider B2, for which the “kcat (hrs−1) 2,4-D-Glu” value is 1.602 h⁻¹.

Regarding B3, the “kcat (hrs−1) 2,4-D-Glu” value amounted to 0.974 h⁻¹.

On to B4, for which the “kcat (hrs−1) 2,4-D-Glu” value was 0.635 h⁻¹.

As for B5, the “kcat (hrs−1) 2,4-D-Glu” value came to 0.455 h⁻¹.

For B6, the “kcat (hrs−1) 2,4-D-Glu” value came to 1.750 h⁻¹.
